The results in this text go back to the supplement of paper PMC9942255.

The test system of the data set is Bacillus subtilis DB104 (SP-AmyQ fusion secretion). Kind of data set: AmyQ secretion efficiency, weighted average sort bin (1 = best secretion, 10 = worst) (bin number (weighted average, 1-10)); higher = lower secretion efficiency. In a few lines: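 In this assay, the secretion score is defined as the average bin number weighted by read frequency, normalised to beads per bin, with low-abundance sequences not counted. B. subtilis DB104 cells expressing mature AmyQ behind designed signal peptides (amyE-integrated) were enclosed with fluorescein-starch in ~65 nL alginate beads at about 0.3 cells per bead. Beads grew about 13 h at room temperature, were stained with nile red, and occupied beads went into 10 equally populated green/red fluorescence ratio bins by large-particle flow cytometry, whose amplicons were Illumina-sequenced.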

Take MKWMCSICCAAVLLAGGALQAEAV: the AmyQ secretion efficiency worked out at 2.66. The value for MKWMCSICCAAVLLAGGAMQAEAV was 3.69; that for MKWMCSICCAAVLLAGGANQAEAV was 2.83. MKWMCSICCAAVLLAGGAPQAEAV gave an AmyQ secretion efficiency of 2.41. In the case of MKWMCSICCAAVLLAGGAPTFAQAEAV, the AmyQ secretion efficiency came out at 3.68.

Take MKWMCSICCAAVLLAGGAQAEAV: the AmyQ secretion efficiency is 3.54. The value for MKWMCSICCAAVLLAGGAQQAEAV was 2.93. The value for MKWMCSICCAAVLLAGGARQAEAV was 2.15; that for MKWMCSICCAAVLLAGGASFFGTFGPGTTAQAEAV was 4.06; that for MKWMCSICCAAVLLAGGASQAEAV was 3.1. MKWMCSICCAAVLLAGGATQAEAV gave an AmyQ secretion efficiency of 2.86. For the sequence MKWMCSICCAAVLLAGGAVQAEAV, the AmyQ secretion efficiency worked out at 2.89. The sequence MKWMCSICCAAVLLAGGAWQAEAV yielded an AmyQ secretion efficiency of 3.41.

In turn, MKWMCSICCAAVLLAGGTAQAEAV came in with an AmyQ secretion efficiency of 2.47. The value for MKWMCSICCAAVLLAGIAIAQAEAV was 6.86; that for MKWMCSICCAAVLLAGLGAAQAEAV was 3.8; that for MKWMCSICCAAVLLAGRRRRRKAQAEAV was 6.72.

Turning to MKWMCSICCAAVLLAGTVFLLGAAQAEAV, the AmyQ secretion efficiency stood at 3.59. The sequence MKWMCSTCCAAVLLAGGAAQAEAV showed an AmyQ secretion efficiency of 2.63.

Sequence MKWMCTKCCTYQQLAGGAAQAEAV returned an AmyQ secretion efficiency of 7.81. In turn, MKWMTNCSICCAAVLLAGGAAQAEAV yielded an AmyQ secretion efficiency of 3.49. The same measure for MKWYCSICCAAVLLAGGAAQAEAV: 2.63; for MKWYRRRQRCSICCAAVLLAGGAAQAEAV: 4.99. The same measure for MKYCQKSISRFLVSLIIGTFVISVPFMANAQSD: 3.17. With MLCKKMLLFSAIASFPVSAQAKDQ, the AmyQ secretion efficiency turned out to be 4.84.

In turn, MLCKRKRLFSAIASFPVSAQAKDQ showed an AmyQ secretion efficiency of 7.61. MLCKRRKRKSAIASFPVSAQAKDQ had an AmyQ secretion efficiency of 6.78. The same measure for MLCVMMLLFMAIASFPVSAQAKDQ: 5.48; for MLCVMMLLFSAIAAFTVTAQAKDQ: 6.83. The same measure for MLCVMMLLFSAIAEDEVSAQAKDQ: 6.57; for MLCVMMLLFSAIAEEEDEEAQAKDQ: 7.25; for MLCVMMLLFSAIAKKRRKRAQAKDQ: 7.12. The sequence MLCVMMLLFSAIAKRRVSAQAKDQ registered an AmyQ secretion efficiency of 7.83. On to MLCVMMLLFSAIALFLVASFPVSAQAKDQ, for which the AmyQ secretion efficiency stood at 7.1. The same measure for MLCVMMLLFSAIAPDPSGAQAKDQ: 4.72; for MLCVMMLLFSAIASAQAKDQ: 6.18. Sequence MLCVMMLLFSAIASFPVSAQAAKK came in with an AmyQ secretion efficiency of 6.38. The sequence MLCVMMLLFSAIASFPVSAQAAPQ showed an AmyQ secretion efficiency of 4.18.

The sequence MLCVMMLLFSAIASFPVSAQAASR had an AmyQ secretion efficiency of 6.18. The sequence MLCVMMLLFSAIASFPVSAQAKKK gave an AmyQ secretion efficiency of 7.53. The sequence MLCVMMLLFSAIASFPVSAQCKDQ came in with an AmyQ secretion efficiency of 6.94. The same measure for MLCVMMLLFSAIASFPVSAQDKDQ: 6.19; for MLCVMMLLFSAIASFPVSAQEKDQ: 5.69. Sequence MLCVMMLLFSAIASFPVSAQHKDQ showed an AmyQ secretion efficiency of 5.96. As to MLCVMMLLFSAIASFPVSAQIKDQ, the AmyQ secretion efficiency was determined as 5.57. Sequence MLCVMMLLFSAIASFPVSAQLKDQ gave an AmyQ secretion efficiency of 6.33. MLCVMMLLFSAIASFPVSAQMKDQ showed an AmyQ secretion efficiency of 6.09. The value for MLCVMMLLFSAIASFPVSAQNKDQ was 6.98; that for MLCVMMLLFSAIASFPVSAQQKDQ was 6.18; that for MLCVMMLLFSAIASFPVSAQRKDQ was 6.75. The same measure for MLCVMMLLFSAIASFPVSAQSKDQ: 5.6; for MLCVMMLLFSAIASFPVSAQTKDQ: 6.25.

With MLCVMMLLFSAIASFPVSAQVKDQ, the AmyQ secretion efficiency was determined as 5.88.

As for MLCVMMLLFSAIASFPVSAQYKDQ, the AmyQ secretion efficiency came out at 6.57.

Turning to MLCVMMLLFSAIASFPVSASATAQAKDQ, the AmyQ secretion efficiency came out at 5.05. In turn, MLCVMMLLFSAIASFPVSCQAKDQ returned an AmyQ secretion efficiency of 5.97.

Sequence MLCVMMLLFSAIASFPVSDQAKDQ showed an AmyQ secretion efficiency of 5.98.

In turn, MLCVMMLLFSAIASFPVSEQAKDQ returned an AmyQ secretion efficiency of 4.62. MLCVMMLLFSAIASFPVSFQAKDQ registered an AmyQ secretion efficiency of 8.56. The value for MLCVMMLLFSAIASFPVSFTFPAFATAQAKDQ was 7.71; that for MLCVMMLLFSAIASFPVSGQAKDQ was 5.05; that for MLCVMMLLFSAIASFPVSIQAKDQ was 6.18. On to MLCVMMLLFSAIASFPVSKQAKDQ, for which the AmyQ secretion efficiency stood at 7.19. The value for MLCVMMLLFSAIASFPVSLQAKDQ was 5.46; that for MLCVMMLLFSAIASFPVSMQAKDQ was 5.6; that for MLCVMMLLFSAIASFPVSNQAKDQ was 5.37.

For MLCVMMLLFSAIASFPVSPQAKDQ, the AmyQ secretion efficiency came out at 6.39. MLCVMMLLFSAIASFPVSRQAKDQ gave an AmyQ secretion efficiency of 7.53.

MLCVMMLLFSAIASFPVSSQAKDQ yielded an AmyQ secretion efficiency of 5.36.

For MLCVMMLLFSAIASFPVSTQAKDQ, the AmyQ secretion efficiency was found to be 5.3. The value for MLCVMMLLFSAIASFPVSVQAKDQ was 3.83; that for MLCVMMLLFSAIASFPVSWQAKDQ was 6.99. The same measure for MLCVMMLLFSAIASFPVSYQAKDQ: 6.1; for MLCVMMLLFSAIASTPVSAQAKDQ: 5.3. The same measure for MLCVMMLLFSAIATFVVVAQAKDQ: 6.49; for MLCVMMLLFSAIAVSFPVSAQAKDQ: 5.09; for MLCVMMLLFSSFPVSAQAKDQ: 5.51. With MLFIFVITCVMAASLTLGSLLPAGYATAKED, the AmyQ secretion efficiency was found to be 4.43. The same measure for MLFKKWMVGLLAGCLAAGGFSYNAFATEN: 4.2; for MLFLLVSLRVWMVFLMNWVTPDRKTAAAAVY: 6.62; for MLFNTSFVSSLFISSAVLLSILLPSGQAHAQSA: 2.42. The same measure for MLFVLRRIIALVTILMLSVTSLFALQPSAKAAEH: 1.93. Regarding MLGIRLLTIYIMLLGLIAWFPGAAQAEEK, the AmyQ secretion efficiency was determined as 2.38. The value for MLGKIALTLCPAIVGSLLFFTAPASAHVS was 2.47; that for MLGMGWMVGLLAGCLAAGGFSYNAFATEN was 6.54. The same measure for MLGSTSFVSSLFISSAVLLSILLPSGQAHAQSA: 2.1. The value for MLIRKRRNFKRFIAAFLVLALMISLVPADVLAKST was 1.85; that for MLKFLKSNFRFLLAAALGISLLASSNFIKASND was 3.52.

Sequence MLKGIIRFLLVSFVLFFALSTGITGVQAAPA yielded an AmyQ secretion efficiency of 2.22. The value for MLKKIALILCIAIVFFLLFFSAPASAHVS was 3.76; that for MLKKIALTLCPAIVAPASAHVS was 6.21; that for MLKKIALTLCPAIVGSLLAPASAHVS was 4.32. MLKKIALTLCPAIVGSLLFFTAGASAHVS gave an AmyQ secretion efficiency of 3.12. The value for MLKKIALTLCPAIVGSLLFFTAIASAHVS was 3.46; that for “MLKKIALTLCPAIVGSLLFFTAPAPVAVASFAAAASAHVS” was 5.09.

MLKKIALTLCPAIVGSLLFFTAPASADEE displayed an AmyQ secretion efficiency of 3.58. The same measure for MLKKIALTLCPAIVGSLLFFTAPASAHEE: 2.4; for MLKKIALTLCPAIVGSLLFFTAPASAHKK: 1.72; for MLKKIALTLCPAIVGSLLFFTAPASAHVE: 2.48. The same measure for MLKKIALTLCPAIVGSLLFFTAPASAHVK: 2.44; for MLKKIALTLCPAIVGSLLFFTAPASARKR: 6.88. The same measure for MLKKIALTLCPAIVGSLLFFTAPASDHVS: 5.33.

In turn, MLKKIALTLCPAIVGSLLFFTAPASEHVS showed an AmyQ secretion efficiency of 6.03. The same measure for MLKKIALTLCPAIVGSLLFFTAPASFHVS: 7.41; for MLKKIALTLCPAIVGSLLFFTAPASGHVS: 2.72. The same measure for MLKKIALTLCPAIVGSLLFFTAPASKHVS: 5.12; for MLKKIALTLCPAIVGSLLFFTAPASMHVS: 4.09. In the case of MLKKIALTLCPAIVGSLLFFTAPASPHVS, the AmyQ secretion efficiency was 8.85. The value for MLKKIALTLCPAIVGSLLFFTAPASQHVS was 5.33; that for MLKKIALTLCPAIVGSLLFFTAPASRHVS was 6.05; that for MLKKIALTLCPAIVGSLLFFTAPASSHVS was 4.06. In turn, MLKKIALTLCPAIVGSLLFFTAPASTHVS yielded an AmyQ secretion efficiency of 5.85. Turning to MLKKIALTLCPAIVGSLLFFTAPASVHVS, the AmyQ secretion efficiency stood at 6.13. MLKKIALTLCPAIVGSLLFFTAPCSAHVS gave an AmyQ secretion efficiency of 3.32. Sequence MLKKIALTLCPAIVGSLLFFTAPDSAHVS gave an AmyQ secretion efficiency of 6.1.
